Source: the FLAb antibody collection
Numbering of substitutions follows the chain as printed. Values joined by “and” are separate entries in the source; they are usually repeats but may differ in a detail not shown here. Equal values may be shown once.

B1: unnamed (protein)
chain 1: QVQLVQSGAEVKKPGASVKISCKASGYSFTAYYIHWVKQAPGQGLEWIGYISNYNRATNYNQKFKGRVTFTTDTSTSTAYMELRSLRSDDTAVYYCARDYDYDVGMDYWGQGTLVTVSS
chain 2: DIVMTQSPDSLAVSLGERATISCRASESVDNYGISFMKWFQQKPGQPPKLLIYAASNQGSGVPDRFSGSGSGTDFTLTISSLQAEDVAVYYCQQSKEVPWTFGGGTKVEIK
B2: unnamed (protein)
chain 1: QVQLVQSGAEVKKPGASVKVSCKASGYTFTSHWMHWVRQAPGQGLEWIGEFNPSNGRTNYNEKFKSKATMTVDTSTNTAYMELSSLRSEDTAVYYCASRDYDYDGRYFDYWGQGTLVTVSS
chain 2: DIQMTQSPSSLSASVGDRVTITCSASSSVTYMYWYQQKPGKAPKLLIYDTSNLASGVPSRFSGSGSGTDYTFTISSLQPEDIATYYCQQWSSHIFTFGQGTKVEIK
B3: unnamed (protein)
chain 1: QVQLVQSGAEVKKPGASVKVSCKVSGYTLTELSIHWVRQAPGKGLEWMGGFDPEENEIVYAQRFQGRVTMTEDTSTDTAYMELSSLRSEDTAVYYCAIVGSFSPLTLGLWGQGTMVTVSS
chain 2: QSVLTQPPSVSGAPGQRVTISCTGSGSNIGAPYDVSWYQQLPGTAPKLLIYHNNKRPSGVPDRFSGSKSGTSASLAITGLQAEDEADYYCATVEAGLSGSVFGGGTKLTVL
B4: unnamed (protein)
chain 1: EVQLVQSGAEVKKPGESLKISCKGSGYIFTNYWIAWVRQMPGKGLESMGIIYPGDSDIRYSPSFQGQVTISADKSITTAYLQWSSLKASDTAMYYCARHDIEGFDYWGRGTLVTVSS
chain 2: EIVLTQSPGTLSLSPGERATLSCRASQSVSSSFFAWYQQKPGQAPRLLIYGASSRATGIPDRLSGSGSGTDFTLTITRLEPEDFAVYYCQQYDSSAITFGQGTRLEIK
B5: unnamed (protein)
chain 1: EVQLVESGGDLVQPGRSLRLSCAASGFIFSNYGMSWVRQAPGKGLEWVATISSASTYSYYPDSVKGRFTISRDNAKNSLYLQMNSLRVEDTALYYCGRHSDGNFAFGYWGQGTLVTVSS
chain 2: DVLMTQSPLSLPVTPGEPASISCRSSRNIVHINGDTYLEWYLQKPGQSPQLLIYKVSNRFSGVPDRFSGSGSGTDFTLKISRVEAEDVGVYYCFQGSLLPWTFGQGTKVEIK
B6: unnamed (protein)
chain 1: QVQLVQSGGGLVQAGGSLRLSCAASGGTFATSPMGWLRQAPGKGTEFVAAISPSGGDRIYADSVKGRFTISRDNAGYFIYLQMNSLKPEDTAVYYCAVRRRFDGTSYYTGDYDSWGQGTLVTVSS
chain 2: EIVLTQSPGTLSLSPGERATLSCRASQSVSSSYLAWYQQKPGQAPRLLIYDASSRATGIPDRFSGSGSGTDFTLTISRLEPEDFAVYYCQQYSYSPVTFGQGTKVEIK
B7: unnamed (protein)
chain 1: EVQLQQSGPDLVKPGASVKISCKASGYSFTGYYMHWVKQSPGKGLEWIGRINPNNGVTLYNQKFKDKATLTVDKSSTTAYMELRSLTSEDSAVYYCARSTMITNYVMDYWGQGTSVTVSS
chain 2: SIVMTQTPTSLLVSAGDRVTITCKASQSVSNDVAWYQQKPGQSPKLLISYTSSRYAGVPDRFSGSGYGTDFTLTISSVQAEDAAVYFCQQDYNSPPTFGGGTKLEIK
B8: unnamed (protein)
chain 1: QVTLRESGPALVKPTQTLTLTCTFSGFSLSTAGMSVGWIRQPPGKALEWLADIWWDDKKHYNPSLKDRLTISKDTSKNQVVLKVTNMDPADTATYYCARDMIFNFYFDVWGQGTTVTVSS
chain 2: DIQMTQSPSTLSASVGDRVTITCSASSRVGYMHWYQQKPGKAPKLLIYDTSKLASGVPSRFSGSGSGTEFTLTISSLQPDDFATYYCFQGSGYPFTFGGGTKVEIK
B9: unnamed (protein)
chain 1: QVQLVQSGAEVKKPGSSVMVSCQASGGLLEDYIINWVRQAPGQGPEWMGGIIPVLGTVHYGPKFQGRVTITADESTDTAYMELSSLRSEDTAMYYCATETALVVSETYLPHYFDNWGQGTLVTVSS
chain 2: DIQMTQSPSSLSAAVGDRVTITCQASQDIVNYLNWYQQKPGKAPKLLIYVASNLETGVPSRFSGSGSGTDFSLTISSLQPEDVATYYCQQYDNLPLTFGGGTKVEIK
B10: unnamed (protein)
chain 1: EVQLVESGGGLVKPGGSLKLSCAASGYTFTSYVMHWVRQAPGKGLEWIGYINPYNDGTKYNEKFQGRVTISSDKSISTAYMELSSLRSEDTAMYYCARGTYYYGTRVFDYWGQGTLVTVSS
chain 2: DIVMTQSPATLSLSPGERATLSCRSSKSLQNVNGNTYLYWFQQKPGQSPQLLIYRMSNLNSGVPDRFSGSGSGTEFTLTISSLEPEDFAVYYCMQHLEYPITFGAGTKLEIK
B11: unnamed (protein)
chain 1: QVQLVQSGAEVKKPGASVKVSCKAFGYPFTDYLLHWVRQAPGQGLEWVGWLNPYSGDTNYAQKFQGRVTMTRDTSISTAYMELSRLRSDDTAVYYCTRTTLISVYFDYWGQGTMVTVSS
chain 2: DIQMTQSPSSVSASVGDRVTIACRASQNIRNILNWYQQRPGKAPQLLIYAASNLQSGVPSRFSGSGSGTDFTLTINSLQPEDFATYYCQQSYSMPRTFGGGTKLEIK
B12: unnamed (protein)
chain 1: EVQLVESGGGLVKPGGSLKLSCAASGFAFSIYDMSWVRQTPEKCLEWVAYISSGGGTTYYPDTVKGRFTISRDNAKNTLYLQMSSLKSEDTAMYYCARHSGYGTHWGVLFAYWGQGTLVTVSA
chain 2: DIQMTQTTSSLSASLGDRVTISCRASQDISNYLNWYQQKPDGTVKLLIYYTSILHSGVPSRFSGSGSGTDYSLTISNLEQEDFATYFCQQGNTLPWTFGCGTKLEI
B13: unnamed (protein)
chain 1: QVQLQQSGPELKKPGASVKVSCKDSGYAFSSSWMNWVRQAPGQGLEWIGRIYPGDGDTNYNGKFQGRVTITADKSSSTAYMELSSLRSEDTAVYFCARSGLLRYAMDYWGQGTLVTVSS
chain 2: DIQMTQSPSSLSASVGDRVTITCRASQDIRNYLNWYQQKPGKAVKLLIYYTSRLLPGVPSRFSGSGSGTDYSLTISSQEQEDIGTYFCQQGNTLPWTFGQGTKVEIR
B14: unnamed (protein)
chain 1: QVQLQESGPGLVKPSQTLSLTCTVSGGSISSGDYYWSWIRQPPGKGLEWIGYIYYSGSTDYNPSLKSRVTMSVDTSKNQFSLKVNSVTAADTAVYYCARVSIFGVGTFDYWGQGTLVTVSS
chain 2: EIVMTQSPATLSLSPGERATLSCRASQSVSSYLAWYQQKPGQAPRLLIYDASNRATGIPARFSGSGSGTDFTLTISSLEPEDFAVYYCHQYGSTPLTFGGGTKAEIK
B15: unnamed (protein)
chain 1: QVQLVESGGGVVQPGRSLRLDCKASGITFSNSGMHWVRQAPGKGLEWVAVIWYDGSKRYYADSVKGRFTISRDNSKNTLFLQMNSLRAEDTAVYYCATNDDYWGQGTLVTVSS
chain 2: B14 chain 2 with M4L, H89Q, Y91S, G92S, S93N, T94W, L96R, G100Q, A104V
B16: unnamed (protein)
chain 1: QVTLRESGPALVKPTQTLTLTCTVSGFSLTSYSVHWVRQPPGKGLEWLGVIWASGGTDYNSALMSRLSISKDTSRNQVVLTMTNMDPVDTATYYCARDPPSSLLRLDYWGRGTPVTVSS
chain 2: DIVMTQSPDSLAVSLGERATINCKSSQSLLNSGNQKNYLAWYQQKPGQPPKLLIYGASTRESGVPDRFSGSGSGTDFTLTISSLQAEDVAVYYCQNVHSFPFTFGGGTKLEIK
B17: unnamed (protein)
chain 1: QVQLQESGPGLVKPSETLSLTCTVSGFSLLSYGVHWVRQPPGKGLEWLGVIWTGGTTNYNSALMSRFTISKDDSKNTVYLKMNSLKTEDTAIYYCARYYYGMDYWGQGTLVTVSS
chain 2: DIQMTQSPSSLSASVGDRVTITCKASQDVRNTVAWYQQKPGKAPKLLIYSSSYRNTGVPDRFSGSGSGTDFTLTISSLQAEDVAVYYCQQHYITPYTFGGGTKVEIK
B18: unnamed (protein)
chain 1: QVQLQQPGAELVEPGGSVKLSCKASGYTFTSHWMHWVKQRPGQGLEWIGEINPSSGRNNYNEKFKSKATLTVDKSSSTAYMQFSSLTSEDSAVYYCVRYYGYDEAMDYWGQGTSVTVSS
chain 2: DIVMTQAAFSNPVTLGTSASISCRSSKSLLHSNGITYLYWYLQKPGQSPQLLIYQMSNLASGVPDRFSSSGSGTDFTLRISRVEAEDVGVYYCAQNLELPYTFGGGTKLEIK
B19: unnamed (protein)
chain 1: QVQLVQSGAEVKKPGASVKVSCKASGFNIKDTYIHWVRQAPGQRLEWMGRIDPANGYTKYDPKFQGRVTITADTSASTAYMELSSLRSEDTAVYYCAREGYYGNYGVYAMDYWGQGTLVTVSS
chain 2: DIQMTQSPSSLSASVGDRVTITCKTSQDINKYMAWYQQTPGKAPRLLIHYTSALQPGIPSRFSGSGSGRDYTFTISSLQPEDIATYYCLQYDNLWTFGQGTKVEIK

Assay: patients with anti-drug antibodies; higher = more immunogenic

Protein	patients with anti-drug antibodies
B1	29%
B2	10%
B3	3.1%
B4	3.3%
B5	4.2%
B6	0%
B7	72.5%
B8	1.5%
B9	28%
B10	17.5% and 1%
B11	0.9%
B12	59%
B13	2.5%
B14	4.1%
B15	7.7%
B16	13%
B17	21.2%
B18	0%
B19	9%
